Literature values, collected in PMC8296306.

Experiments:
[1] = molecular target: Cxcl2/MIP2 (Mus musculus) (UniProt P10889)
Cxcl1/KC (Mus musculus) = Cxcl1/KC (Mus musculus) (UniProt P12850)

Row | Kd [1] | Kd (Cxcl1/KC (Mus musculus)) | Substance
1 | 15 µM | – | Cxcl2/MIP2 (from UniProt P10889)
2 | – | 35 µM | Cxcl1/KC (from UniProt P12850)
